Patent publication US20240181068A1, “SELECTIVE NEUTRAL PH INHIBITOR OF CATHEPSIN B” (The Regents of the University of California, priority 2021, published 2024)
One block for each molecule: values may come before it. Peptide text beside a SMILES is read from it. * marks the point of attachment. AOMK = acyloxymethyl ketone warhead replacing the C-terminal carboxyl; AMC = Cc1cc(=O)oc2cc(N*)ccc12; Cbz = O=C(OCc1ccccc1)*

Columns and labels:
[1] = target: T1, cathepsin B in human neuroblastoma cells (SHSY5Y) (Homo sapiens, UniProt P07858); experiment: Neuroblastoma cells incubated with inhibitors, then cathepsin B assay; type: cell-based; settings: cells incubated with 50 μM inhibitor for 6 hrs, washed, homogenate assayed with Z-Arg-Arg-AMC
T1 construct: endogenous in cells; host or cells: SH-SY5Y human neuroblastoma cells
Experimental: Cathepsin B in human neuroblastoma cells treated with inhibitors. Neuroblastoma cells (human SHSY5Y) were grown in media consisting of 50% MEMalpha, 50% F12-K, 10% heat-inactivated FBS at 37° C. in an atmosphere of 95% air and 5% CO2. Firstly, cell homogenates were prepared by collection of cells in 0.32 M sucrose and freeze-thawing. Secondly, cells were incubated with Z-Arg-Lys-AOMK or CA-074Me for 6 hours at 37° C., and washed 3 times in phosphate-buffered saline and homogenates were prepared in 0.32 M sucrose with freeze-thawing. CA-074Me is a methyl ester form of the active CA-074 selective inhibitor of cathepsin B (70); CA-074Me penetrates the cell and is converted by intracellular esterases to CA-074.
Cathepsin B activity in the homogenates were monitored with Z-Arg-Arg-AMC substrate (60 μM) with buffer conditions of 40 mM citrate-phosphate, pH 5.5, 5 mM DTT, 1 mM EDTA, 100 mM NaCl, and 1.2% DMSO, followed by incubation at 37° C. for 30 minutes and reading of AMC fluorescence. CA-074-senstive activity was monitored to indicate cathepsin B activity, since CA-074 is a selective inhibitor of this enzyme (70). Protein content was measured in homogenates with the DC protein assay kit. Cathepsin B specific activity was calculated as nmol AMC/μg/min, and reported as the mean±SD (with analyses for statistical significance, p<0.05 by student's t-test).

cathepsin L = target: T2, cathepsin L (Homo sapiens, UniProt P07711); experiment: Specificity of peptide-AMC substrates: cathepsin L; type: biochemical
T2 construct: purchased R&D Systems 952-CY-010
T2 sequence (P07711 114-333): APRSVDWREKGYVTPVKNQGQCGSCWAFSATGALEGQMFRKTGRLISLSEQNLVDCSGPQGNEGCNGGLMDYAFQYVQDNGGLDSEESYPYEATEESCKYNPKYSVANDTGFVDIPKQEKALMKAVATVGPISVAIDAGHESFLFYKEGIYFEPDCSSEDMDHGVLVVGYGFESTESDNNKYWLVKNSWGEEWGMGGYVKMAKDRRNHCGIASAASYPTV

cathepsin B = target: T3, cathepsin B (Homo sapiens, UniProt P07858); experiment: pH profile of cathepsin B activity with peptide-AMC substrates; type: biochemical; settings: substrate 60 μM
T3 construct: purchased R&D Systems 953-CY-010
Experimental: Cathepsin B activity assayed by fluorogenic peptide substrates. Proteolytic assays of cathepsin B were conducted with Z-Arg-Lys-AMC and Z-Gly-Lys-AMC substrates in 50 mM citrate phosphate at pH 7.2 or pH 4.6, 1 mM EDTA, 100 mM NaCl, and 5 mM DTT. Assays with Z-Phe-Arg-AMC substrate were conducted under identical conditions and included 0.01% Tween20. Assays were performed in 384 well plates at 25° C. in a total volume of 30 μL. Fluorescence was quantified by a Biotek Synergy HTX microplate plate reader with excitation 360 nm, emission 460 nm, gain 50, top optics and read height 1 mm. Proteolytic activity is reported as relative fluorescent units per sec (RFU/sec), and was calculated using the highest slope recorded for 10 consecutive readings. Fluorescent readings were taken in 46 sec intervals and therefore activity is calculated over a total of 460 sec. To ensure that initial velocity is assessed, only readings within the first 30 minutes of the reaction were analyzed. RFU/sec readings were converted to enzyme specific activity of pmol/min/μg using the conversion factor of 1227 RFU per μM AMC.
To generate the pH profile of cathepsin B activity with the substrates Z-Arg-Lys-AMC, Z-Glu-Lys-AMC, and Z-Phe-Arg-AMC, 60 μM of each substrate and 0.04 ng/ul of cathepsin B were assayed in citrate phosphate buffers ranging from pH 2.2 to 7.4 in increments of 0.4 pH units, including pH 7.2. […]

cathepsin V = target: T4, cathepsin V (Homo sapiens, UniProt O60911); experiment: Specificity of peptide-AMC substrates: cathepsin V; type: biochemical
T4 construct: purchased R&D Systems 1080-CY-010

[2] = target: Recombinant human cathepsin B (R&D #953-CY-010) (human) (UniProt P07858); experiment: inactivation kinetics, fluorogenic cathepsin B assay with Z-Phe-Arg-AMC, pH 7.2
[3] = target: Recombinant human cathepsin B (R&D #953-CY-010) (human) (UniProt P07858); experiment: inactivation kinetics, fluorogenic cathepsin B assay with Z-Phe-Arg-AMC, pH 4.6
[4] = target: Recombinant human cathepsin B (R&D #953-CY-010) (human) (UniProt P07858); experiment: cell-based or functional assay
[5] = target: Recombinant human cathepsin B (R&D #953-CY-010) (human) (UniProt P07858); experiment: ratio of KI values, fluorogenic cathepsin B assay
[6] = target: cathepsin L (R&D #952-CY-010) (human, UniProt P07711 114-333); experiment: cell-based or functional assay
cathepsin L (R&D #952-CY-010), sequence (P07711 114-333): as above

[7] = target: T5, cathepsin V (R&D #1080-CY-010) (human, UniProt O60911 18-334); experiment: cell-based or functional assay
T5 sequence (looked up): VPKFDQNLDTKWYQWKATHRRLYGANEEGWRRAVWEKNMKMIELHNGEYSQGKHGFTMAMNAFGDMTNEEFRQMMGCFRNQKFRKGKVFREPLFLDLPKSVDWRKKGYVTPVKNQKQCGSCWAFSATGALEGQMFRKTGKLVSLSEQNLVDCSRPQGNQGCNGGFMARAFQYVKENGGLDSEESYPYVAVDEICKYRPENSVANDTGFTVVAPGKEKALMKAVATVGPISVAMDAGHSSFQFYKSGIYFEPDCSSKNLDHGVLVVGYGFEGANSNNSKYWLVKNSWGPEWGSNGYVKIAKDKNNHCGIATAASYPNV

[8] = target: T6, cathepsin K (Abcam #ab157067) (human, UniProt P43235 115-329, limits assumed); experiment: cell-based or functional assay
T6 sequence (looked up): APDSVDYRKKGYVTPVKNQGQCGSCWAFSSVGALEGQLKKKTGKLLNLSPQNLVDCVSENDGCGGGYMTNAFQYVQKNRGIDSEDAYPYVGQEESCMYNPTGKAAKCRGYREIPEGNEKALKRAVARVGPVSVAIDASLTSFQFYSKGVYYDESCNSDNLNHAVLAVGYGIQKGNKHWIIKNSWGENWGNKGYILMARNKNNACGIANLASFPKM

[9] = target: cathepsin C (R&D #1071-CY-010) (human, UniProt P53634 25-463); experiment: cell-based or functional assay
cathepsin C (R&D #1071-CY-010), sequence (P53634 25-463 limits assumed): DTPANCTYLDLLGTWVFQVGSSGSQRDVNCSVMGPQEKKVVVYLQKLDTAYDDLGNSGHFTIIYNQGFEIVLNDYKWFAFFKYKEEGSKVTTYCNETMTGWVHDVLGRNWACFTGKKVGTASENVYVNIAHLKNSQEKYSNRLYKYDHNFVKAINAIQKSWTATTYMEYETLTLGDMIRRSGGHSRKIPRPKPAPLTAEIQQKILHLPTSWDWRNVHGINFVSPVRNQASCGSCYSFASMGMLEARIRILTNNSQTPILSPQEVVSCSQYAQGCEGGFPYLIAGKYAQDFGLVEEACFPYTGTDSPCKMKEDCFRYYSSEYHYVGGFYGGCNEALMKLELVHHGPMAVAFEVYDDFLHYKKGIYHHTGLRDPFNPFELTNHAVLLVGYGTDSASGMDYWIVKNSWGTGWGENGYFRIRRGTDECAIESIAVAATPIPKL

[10] = target: cathepsin S (R&D #1183-CY-010) (human, UniProt P25774 17-331); experiment: cell-based or functional assay
cathepsin S (R&D #1183-CY-010), sequence (P25774 17-331 limits assumed): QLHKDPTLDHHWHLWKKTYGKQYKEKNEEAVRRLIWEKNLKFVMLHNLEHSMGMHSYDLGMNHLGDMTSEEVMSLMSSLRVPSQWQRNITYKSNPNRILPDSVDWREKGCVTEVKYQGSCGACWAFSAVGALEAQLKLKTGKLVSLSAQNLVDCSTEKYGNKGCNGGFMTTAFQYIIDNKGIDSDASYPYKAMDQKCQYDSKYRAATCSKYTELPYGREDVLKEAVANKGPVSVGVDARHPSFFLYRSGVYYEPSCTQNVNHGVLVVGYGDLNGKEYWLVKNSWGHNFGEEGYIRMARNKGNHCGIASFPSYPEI

cathepsin X = cathepsin X (UniProt Q9UBR2 24-303, limits assumed); experiment: cell-based or functional assay
cathepsin X, sequence (Q9UBR2 24-303 limits assumed): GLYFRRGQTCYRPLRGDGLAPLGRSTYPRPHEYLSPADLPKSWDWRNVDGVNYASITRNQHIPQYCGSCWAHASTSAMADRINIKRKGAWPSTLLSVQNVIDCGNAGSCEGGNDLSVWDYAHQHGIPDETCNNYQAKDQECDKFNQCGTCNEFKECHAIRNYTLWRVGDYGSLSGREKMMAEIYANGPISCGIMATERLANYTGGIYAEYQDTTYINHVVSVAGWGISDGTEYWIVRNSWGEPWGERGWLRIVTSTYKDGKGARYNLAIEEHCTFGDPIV

[11] = target: T7, cathepsin H (R&D #75116-CY-010) (human, UniProt P09668 116-335); experiment: cell-based or functional assay
T7 sequence (looked up): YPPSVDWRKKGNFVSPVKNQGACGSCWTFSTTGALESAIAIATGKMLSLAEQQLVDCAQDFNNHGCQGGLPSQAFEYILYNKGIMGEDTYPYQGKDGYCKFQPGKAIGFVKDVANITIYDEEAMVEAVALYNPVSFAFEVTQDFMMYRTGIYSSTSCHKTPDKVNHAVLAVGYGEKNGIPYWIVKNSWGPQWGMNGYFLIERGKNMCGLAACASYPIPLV

Molecule: CCCNC(=O)[C@H]1O[C@@H]1C(=O)N[C@H](C(=O)N1CCC[C@H]1C(=O)OC)[C@@H](C)CC [CA-074Me, reference compound]
inhibition of cellular cathepsin B activity [1]: completely inhibited

Molecule: Cc1cc(=O)oc2cc(NC(=O)[C@H](CCCCN)NC(=O)[C@H](CCCNC(=N)N)NC(=O)OCc3ccccc3)ccc12 [Z-Arg-Lys-AMC] (Cbz-Arg-Lys-{AMC})
substrate activity for cathepsin L (cathepsin L; pH 7.2 (data not shown)): no activity | pH of maximal hydrolysis by cathepsin B (cathepsin B): 7.8 | substrate activity for cathepsin V (cathepsin V; pH 7.2 (data not shown)): no activity

Molecule: Z-Arg-Lys-AOMK (peptide)
Kinact/KI [2]: 110000 M⁻¹ s⁻¹ | Kinact/KI [3]: 1800 M⁻¹ s⁻¹ | IC50 of inhibition of cathepsin B activity (Z-Phe-Arg-AMC substrate, no pre-incubation), pH 4.6 [4]: 1500 nM | IC50 of inhibition of cathepsin B activity (Z-Phe-Arg-AMC substrate, no pre-incubation), pH 7.2 [4]: 20 nM | IC50 of inhibition of cathepsin B activity, pH 6.8 (data not shown) [4]: 22 nM | IC50 of inhibition of enzyme activity, pH 4.6 [4]: 1500 nM | IC50 of inhibition of enzyme activity, pH 7.2 [4]: 20 nM | fold greater potency (IC50) for cathepsin B than for cathepsin C, pH 7.2 [4]: 43 fold | fold greater potency (IC50) for cathepsin B than for cathepsin S, pH 7.2 [4]: 110 fold | fold greater potency (IC50) for cathepsin B than for cathepsin V, pH 7.2 [4]: 22 fold | reduction of cathepsin B activity (Z-Phe-Arg-AMC substrate) by 64 nM inhibitor, pH 4.6 [4]: 5% | reduction of cathepsin B activity (Z-Phe-Arg-AMC substrate) by 64 nM inhibitor, pH 7.2 [4]: 93% | fold greater potency (KI) at pH 7.2 compared to pH 4.6 [5]: 115 fold

Molecule: Cc1cc(=O)oc2cc(NC(=O)[C@H](CCCCN)NC(=O)[C@H](CCC(=O)O)NC(=O)OCc3ccccc3)ccc12 [Z-Glu-Lys-AMC] (Cbz-Glu-Lys-{AMC})
substrate activity for cathepsin L (cathepsin L; pH 4.6): no activity | pH of maximal hydrolysis by cathepsin B (cathepsin B): 4.6 | substrate activity for cathepsin V (cathepsin V; pH 4.6): no activity

Molecule: Cbz-Glu-Lys-{AOMK} [Z-Glu-Lys-AOMK]
% inhibition of enzyme activity at 16,000 nM inhibitor, pH 4.6 [6]: 23% | IC50 of inhibition of enzyme activity (Z-Phe-Arg-AMC substrate), pH 4.6 [6]: > 16000 nM | % inhibition of enzyme activity at 16,000 nM inhibitor, pH 7.2 [7]: 10% | IC50 of inhibition of enzyme activity (Z-Phe-Arg-AMC substrate), pH 4.6 [7]: 1900 nM | IC50 of inhibition of enzyme activity (Z-Phe-Arg-AMC substrate), pH 7.2 [7]: > 16000 nM | % inhibition of enzyme activity at 16,000 nM inhibitor, pH 4.6 [8]: 10% | IC50 of inhibition of enzyme activity (Z-Phe-Arg-AMC substrate), pH 4.6 [8]: > 16000 nM | IC50 of inhibition of enzyme activity (Gly-Arg-AMC substrate), pH 4.6 [9]: 8600 nM | IC50 of inhibition of enzyme activity (Gly-Arg-AMC substrate), pH 7.2 [9]: 12000 nM | % inhibition of enzyme activity at 16,000 nM inhibitor, pH 4.6 [10]: 26% | % inhibition of enzyme activity at 16,000 nM inhibitor, pH 7.2 [10]: 30% | IC50 of inhibition of enzyme activity (Z-Phe-Arg-AMC substrate), pH 4.6 [10]: > 16000 nM | IC50 of inhibition of enzyme activity (Z-Phe-Arg-AMC substrate), pH 7.2 [10]: > 16000 nM

Molecule: Cbz-Arg-Lys-{AOMK} [Z-Arg-Lys-AOMK]
% inhibition of enzyme activity at 16,000 nM inhibitor, pH 4.6 [6]: 32% | IC50 of inhibition of enzyme activity (Z-Phe-Arg-AMC substrate), pH 4.6 [6]: > 16000 nM | % inhibition of enzyme activity at 16,000 nM inhibitor, pH 4.6 [7]: 63% | IC50 of inhibition of enzyme activity (Z-Phe-Arg-AMC substrate), pH 4.6 [7]: > 16000 nM | IC50 of inhibition of enzyme activity (Z-Phe-Arg-AMC substrate), pH 7.2 [7]: 440 nM | % inhibition of enzyme activity at 16,000 nM inhibitor, pH 7.2 [8]: 31% | IC50 of inhibition of enzyme activity (Z-Phe-Arg-AMC substrate), pH 7.2 [8]: > 16000 nM | % inhibition of enzyme activity at 16,000 nM inhibitor, pH 4.6 (cathepsin X): 21% | IC50 of inhibition of enzyme activity (MCA-Arg-Pro-Pro-Gly-Phe-Ser-Ala-Phe-Lys(Dnp)OH substrate), pH 4.6 (cathepsin X): > 16000 nM | % inhibition of enzyme activity at 16,000 nM inhibitor, pH 4.6 [9]: 6% | IC50 of inhibition of enzyme activity (Gly-Arg-AMC substrate), pH 4.6 [9]: > 16000 nM | IC50 of inhibition of enzyme activity (Gly-Arg-AMC substrate), pH 7.2 [9]: 850 nM | % inhibition of enzyme activity at 16,000 nM inhibitor, pH 7.2 [11]: 29% | IC50 of inhibition of enzyme activity (Arg-AMC substrate), pH 7.2 [11]: > 16000 nM | % inhibition of enzyme activity at 16,000 nM inhibitor, pH 4.6 [10]: 13% | IC50 of inhibition of enzyme activity (Z-Phe-Arg-AMC substrate), pH 4.6 [10]: > 16000 nM | IC50 of inhibition of enzyme activity (Z-Phe-Arg-AMC substrate), pH 7.2 [10]: 2200 nM

Other lines, results leading:

substrate activity for cathepsin L (cathepsin L; pH 4.6): cleaved | substrate activity for cathepsin V (cathepsin V; pH 4.6): cleaved
Molecule: Cc1cc(=O)oc2cc(NC(=O)C(CCCN=C(N)N)NC(=O)C(Cc3ccccc3)NC(=O)OCc3ccccc3)ccc12 (stereo not drawn) [Z-Phe-Arg-AMC] (Cbz-Phe-Arg-{AMC}; configuration not given here)

Kinact/KI [2]: 8200 M⁻¹ s⁻¹ | Kinact/KI [3]: 2000 M⁻¹ s⁻¹ | IC50 of inhibition of cathepsin B activity (Z-Phe-Arg-AMC substrate, no pre-incubation), pH 4.6 [4]: 1100 nM | IC50 of inhibition of cathepsin B activity (Z-Phe-Arg-AMC substrate, no pre-incubation), pH 7.2 [4]: 320 nM | IC50 of inhibition of enzyme activity, pH 4.6 [4]: 1100 nM | IC50 of inhibition of enzyme activity, pH 7.2 [4]: 320 nM | fold greater potency (IC50) for cathepsin B than for cathepsin C, pH 7.2 [4]: 38 fold | fold greater potency (KI) at pH 7.2 compared to pH 4.6 [5]: 3.5 fold
Molecule: Z-Glu-Lys-AOMK (peptide)
